Reference: patent US20190389914A1 (University of California, published 2019)
Substitutions are numbered along the chain they refer to.

Key:
Assay in all cases: Y2H, beta-gal staining
[1] = biological target: T1, GAL4 activation domain fusion to HAB1^V393R (Arabidopsis thaliana (Mouse-ear cress), UniProt Q9CAJ0 4-511)
T1 construct: Mutant of the pACT-HAB1 template, which lacks the three N-terminal amino acids of HAB1; Denoted HAB1^!
T1 sequence: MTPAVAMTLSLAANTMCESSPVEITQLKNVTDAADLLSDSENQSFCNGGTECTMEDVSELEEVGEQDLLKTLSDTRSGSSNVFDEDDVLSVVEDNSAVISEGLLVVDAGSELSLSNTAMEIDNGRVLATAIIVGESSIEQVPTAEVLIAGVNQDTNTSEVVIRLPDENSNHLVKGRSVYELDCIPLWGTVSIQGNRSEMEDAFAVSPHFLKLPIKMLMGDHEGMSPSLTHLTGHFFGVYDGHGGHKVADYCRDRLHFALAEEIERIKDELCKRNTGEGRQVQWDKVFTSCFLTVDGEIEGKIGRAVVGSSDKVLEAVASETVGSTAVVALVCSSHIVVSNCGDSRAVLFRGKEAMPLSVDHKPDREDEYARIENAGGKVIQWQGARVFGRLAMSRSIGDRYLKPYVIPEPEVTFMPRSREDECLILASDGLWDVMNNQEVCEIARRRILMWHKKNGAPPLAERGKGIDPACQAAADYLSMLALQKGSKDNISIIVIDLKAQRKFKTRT

[2] = biological target: T2, GAL4 activation domain fusion to HAB1 E203D (Arabidopsis thaliana (Mouse-ear cress), UniProt Q9CAJ0 4-511)
T2 construct: Mutant of the pACT-HAB1 template, which lacks the three N-terminal amino acids of HAB1
T2 sequence: T1 sequence with E200D, R390V

[3] = biological target: T3, GAL4 activation domain fusion to HAB1 E203T (Arabidopsis thaliana (Mouse-ear cress), UniProt Q9CAJ0 4-511)
T3 construct: Mutant of the pACT-HAB1 template, which lacks the three N-terminal amino acids of HAB1
T3 sequence: T1 sequence with E200T, R390V

[4] = biological target: T4, GAL4 activation domain fusion to HAB1 V393Q (Arabidopsis thaliana (Mouse-ear cress), UniProt Q9CAJ0 4-511)
T4 construct: Mutant of the pACT-HAB1 template, which lacks the three N-terminal amino acids of HAB1
T4 sequence: T1 sequence with R390Q

[5] = biological target: T5, GAL4 activation domain fusion to HAB1 E203W (Arabidopsis thaliana (Mouse-ear cress), UniProt Q9CAJ0 4-511)
T5 construct: Mutant of the pACT-HAB1 template, which lacks the three N-terminal amino acids of HAB1
T5 sequence: T1 sequence with E200W, R390V

Measured: binding result

B1: GAL4 DNA binding domain fusion to PYR1 (pBD-PYR1), wild type (receptor)
chain: MKLLSSIEQACDICRLKKLKCSKEKPKCAKCLKNNWECRYSPKTKRSPLTRAHLTEVESRLERLEQLFLLIFPREDLDMILKMDSLQDIKALLTGLFVQDNVNKDAVTDRLASVETDMPLTLRQHRISATSSSEESSNKGQRQLTVSMPSELTPEERSELKNSIAEFHTYQLDPGSCSSLHAQRIHAPPELVWSIVRRFDKPQTYKHFIKSCSVEQNFEMRVGCTRDVIVISGLPANTSTERLDILDDERRVTGFSIIGGEHRLTNYKSVTTVHRFEKENRIWTVVLESYVVDMPEGNSEDDTRMFADTVVKLNLQKLATVAEAMARNSGDGSGSQVT
notes: Yeast two-hybrid bait expressed in S. cerevisiae; also called WT
no binding (tested: 10 µM ABA): all assays above
